This series relates to MS2 coat protein. Put plainly: apparent KD of MS2 coat protein; designed switch direction (-1 OFF switch, 1 ON switch): -1; higher = weaker reporter binding. In a few lines: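 Designed RNA switches with common flanks were made on Illumina chips by stalled E. coli RNA polymerase. Titration with SNAP-549-labelled MS2 coat protein doubled from 0.7 or 1.5 nM up to 3 µM. Apparent KD is each design's median over clusters after curve-fitting normalised fluorescence.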

Where [1] appears, read: Eterna round: R95, input ligand: microRNA oligo, concentration not stated.
[2] abbreviates: input ligand: microRNA oligo, concentration not stated.

As for “AUCCAGCGAGGAUAUACUUUGUUUUUUUCGUUUUGUCUCGAACAUGAGGAUCACCCAUGUAGAAGGUGCUUCAC [JR_Ex2_Sub005] (Eterna round: R97, puzzle: Exclusion 2)”, the “apparent KD of MS2 coat protein” value worked out at 60.8 nM (input ligand: FMN 200 uM) and 69.7 nM (input ligand: none).

“AUAUUGUGAGGAUAUGAACUUAGUAACGAAAGAUACUAAGUUCAGAAGGCACAUGAGGAUCACCCAUGUUUCUC [Long static hairpin v11] (Eterna round: R97, puzzle: Exclusion 4)”: the “apparent KD of MS2 coat protein” value is 596 nM (input ligand: FMN 200 uM) and 68.1 nM (input ligand: none).

“UCCUUACUGGUCAGGAUAUACAUUCGCGAGUGGGUGUAGAAGGGACAUGAGGAUCACCCAUGUACGUUACAUCC [alecazam54f] (Eterna round: R97, puzzle: Brourd's mod of Exclusion 4)”: the “apparent KD of MS2 coat protein” value is 18.3 nM (input ligand: FMN 200 uM) and 20.5 nM (input ligand: none).

On to “AGAUCGUCAGGAUAUACAUGAGGAUCACCCAUGUACUGUCUAAAUUUGACUGUAAGAUGUAGAAGGGACGAUCG [Exclusion 3 (MOD9 of #1 Marzena11)] (Eterna round: R97, puzzle: Exclusion 3)”, for which the “apparent KD of MS2 coat protein” value is 67.3 nM (input ligand: FMN 200 uM) and 25.8 nM (input ligand: none).

Consider “CCAUGUCCAGAGGAUAUGUAGCGGAUAAACGCAACAGAAGGCUGGACAUGAGGAUCACCCAUGUGCGCCUUCCA [Letion] (Eterna round: R97, puzzle: Exclusion 6)”, for which the “apparent KD of MS2 coat protein” value (input ligand: FMN 200 uM) was determined as 35.7 nM and the “apparent KD of MS2 coat protein” value (input ligand: none) worked out at 106 nM.

Regarding “AGUGCGUAUGUGAGGAUAUGCUGGUCCUUGGCUCGGCAGAAGGCACAUGAGGAUCACCCAUGUGGUGUCGUACG [salish99_Bmod_ex4_065] (puzzle: Brourd's mod of Exclusion 4)”, the “apparent KD of MS2 coat protein” value under setting [1] is 48.8 nM.

As to “GGAUAAAACCGAGGAUAUACGUAUCACUAACGAGUAGAAGGCGGACAUGAGGAUCACCCAUGUGAGUUCUCAAUAAGAAACACG [Prohibition 64 - Jieux - Exclusion NG 1] (Eterna round: R96, puzzle: Exclusion NG 1)”, the “apparent KD of MS2 coat protein” value reads like this: (input ligand: FMN 200 uM) 519 nM; under setting [2], 85.1 nM; (input ligand: none) 174 nM.

For the sequence “GCAGCUAAUGCAGGAUAUCAGCACGUUUAGUGCUGAGAAGGGCACAUGAGGAUCACCCAUGUGAUCAAUUAAUAUUAAUGCUGC [ENG1/11-B2] (Eterna round: R96, puzzle: Exclusion NG 1)”, the “apparent KD of MS2 coat protein” value is, setting by setting: (input ligand: FMN 200 uM) 152 nM; under setting [2], 23.1 nM; (input ligand: none) 31 nM.

With “UGUUGUCGCGUAGGAUAUGUAUGAGGAUCACCCAUAAGAGUAUAUUUACCAUGAGGAUCACCCAUGUAGAAGGACGGGACAACU [pwkr exNG2 2xF5 1xFMN.12] (Eterna round: R96, puzzle: Exclusion NG 2)”, the “apparent KD of MS2 coat protein” value (input ligand: FMN 200 uM) came to 232 nM, the “apparent KD of MS2 coat protein” value under setting [2] turned out to be 75.6 nM and the “apparent KD of MS2 coat protein” value (input ligand: none) is 127 nM.

With “GUAGAGUCAGGAUAUACAAGAUCGAAAGAUCAAAGAUCCAUACAUGAGGAUCACCCAUGUAGAAGGGACUCUAC [Eli x2 4.10] (Eterna round: R97, puzzle: Exclusion 2)”, the “apparent KD of MS2 coat protein” value was found to be 73.5 nM (input ligand: FMN 200 uM) and 22.4 nM (input ligand: none).

For “AACAGUCCUUAGGAUAUGUGCGAUUAAUAUCGUGCAGAAGGAUGGACAUGAGGAUCACCCAUGUAAAUACUACC [Omei Ex6 A17] (Eterna round: R97, puzzle: Exclusion 6)”, the “apparent KD of MS2 coat protein” value (input ligand: FMN 200 uM) was 62.6 nM and the “apparent KD of MS2 coat protein” value (input ligand: none) amounted to 20.9 nM.

“ACAUGAGGAUCACCCAUGUUCGGCUGGUCCGUCUCGGCUGUCGAGGAUAUAGUUCGGUGUCCGCGCUAGAAGGCGGGAGCUGGC [Aenatbe mod 65] (Eterna round: R96, puzzle: Exclusion NG 3)”: the “apparent KD of MS2 coat protein” value is, setting by setting: (input ligand: FMN 200 uM) 34.1 nM; under setting [2], 29.4 nM; (input ligand: none) 42.6 nM.

In the case of “CUAAUACAUCAGGAUAUGUGUCGUGAUAGCGACACAGAAGGGAUGACAUGAGGAUCACCCAUGUCAAAGGGUGA [eternacac ex6r4 sub23] (Eterna round: R97, puzzle: Exclusion 6)”, the “apparent KD of MS2 coat protein” value is 388 nM (input ligand: FMN 200 uM) and 519 nM (input ligand: none).

In the case of “AUAUUAAUAUAGGAUAUCGAAUUUAUAAAUUAUCGAGAAGGAUAAACAUGAGGAUCACCCAUGUGGUAUCAUGG [Mat - Exclusion 6 - JL Mod - D42] (puzzle: Exclusion 6)”, the “apparent KD of MS2 coat protein” value runs as follows: (Eterna round: R95, input ligand: FMN 200 uM) 239 nM; under setting [1], 222 nM; (Eterna round: R95, input ligand: none) 346 nM.

“GCAGCGUAGUCCAAAUAGGACAUACAUGAGGAUCACCCAUGUCAGGAUAUGGUCUGGAUUACAGGCCAGAAGGGACAAAGCUGC [Eli exng3 - 003] (Eterna round: R96, puzzle: Exclusion NG 3)”: the “apparent KD of MS2 coat protein” value (input ligand: FMN 200 uM) came to 19 nM, the “apparent KD of MS2 coat protein” value under setting [2] came to 15.8 nM and the “apparent KD of MS2 coat protein” value (input ligand: none) was 26 nM.

For the sequence “CAGGUGUUAGGAUAUCGGAGGUUGAGGCAGACGGGAAUAUUCGAGAAGGAACAUGAGGAUCACCCAUGUAGUAG [JR_Exclu4_Sub037] (puzzle: Exclusion 4)”, the “apparent KD of MS2 coat protein” value under setting [1] was determined as 21.5 nM.

Regarding “UUUAAUUGUCACAUGGGUGACAUGAGGAUCACCCAUGUCACAAGCUUUUUGUUCGUCUUAUAAUUAACCCAUGUGAC [Stov1/12-B1] (Eterna round: R97, puzzle: Sensor, turn-off variant 1)”, the “apparent KD of MS2 coat protein” value reads like this: (input ligand: FMN 200 uM) 13.9 nM; (input ligand: none) 13.1 nM.

“UGUGCGUAUGUGAGGAUAUGCUGGUCCUUGGCUCGGCAGAAGGCACAUGAGGAUCACCCAUGUGGUGUCGUACA [salish99_Bmod_ex4_071] (puzzle: Brourd's mod of Exclusion 4)”: the “apparent KD of MS2 coat protein” value under setting [1] was 158 nM.

Take “GCAGCAUAGUGUUAUUACACAAUACAUGAGGAUCACCCAUGUGAGGAUAUGGACUGGAUUACAGUCCAGAAGGCACAAAGCUGC [Zipper Style 3] (Eterna round: R96, puzzle: Exclusion NG 3)”: the “apparent KD of MS2 coat protein” value was 21.7 nM (input ligand: FMN 200 uM), 12.5 nM under setting [2] and 19.8 nM (input ligand: none).

With “AAGGGUGCUUUCAGAACGACAUGAGGAUCACCCAUGUAGACUGAGGAUAUCUACUCCUAAGGACGGGAGAAGGCAGUGUAAUGC [Ex NG3 #65] (Eterna round: R96, puzzle: Exclusion NG 3)”, the “apparent KD of MS2 coat protein” value turned out to be 19.5 nM (input ligand: FMN 200 uM), 14.2 nM under setting [2] and 21.7 nM (input ligand: none).

Regarding “AUCAUGUCAGGAUAUGUGAUAUGGAUCUUCGGAUCAAGUUCACAGAAGGGACAUGAGGAUCACCCAUGUCGAAC [Ex4-3: 30] (puzzle: Exclusion 4)”, the “apparent KD of MS2 coat protein” value under setting [1] was found to be 40.1 nM.

On to “AAUUAAUUAAUUAAUUAAUACAUGAGGAUCACCCAUGUAAUUUAAGAUCCUUAUACAAGCUUUGAUCUCGUAAUUAA [Stov1/4-A1] (Eterna round: R97, puzzle: Sensor, turn-off variant 1)”, for which the “apparent KD of MS2 coat protein” value (input ligand: FMN 200 uM) was 98.9 nM and the “apparent KD of MS2 coat protein” value (input ligand: none) was 93.8 nM.

For “CAGUCGAUAAGAUCAAUUAAUUAACAUGAGGAUCACCCAUGUGAGGAUAUCAGCUCGAUUAGAGCUGAGAAGGCACAACGACUG [ExNG3/17-A1] (Eterna round: R96, puzzle: Exclusion NG 3)”, the “apparent KD of MS2 coat protein” value amounted to 232 nM (input ligand: FMN 200 uM), 31.3 nM under setting [2] and 46.8 nM (input ligand: none).

As for “UUUACAAGCUAUAGAUCCCACAUGAGGAUCACCCAUGUUGCUGCCGUGAGGUAGCUUUUAACUAUUGCUCGUCUUAU [JL TOV1 3.36] (Eterna round: R97, puzzle: Sensor, turn-off variant 1)”, the “apparent KD of MS2 coat protein” value (input ligand: FMN 200 uM) stood at 150 nM and the “apparent KD of MS2 coat protein” value (input ligand: none) turned out to be 181 nM.

Consider “CUUAUGUGAGGAUAUGGUGUUGGCCACAGGAAAAAGAUCCUCCAGAAGGCACAUGAGGAUCACCCAUGUAGUGA [Jolly's Folly 30 - Jieux - Exclusion 4] (Eterna round: R96, puzzle: Exclusion 4)”, for which the “apparent KD of MS2 coat protein” value was found to be 220 nM (input ligand: FMN 200 uM), 54.5 nM under setting [2] and 57.2 nM (input ligand: none).

Take “AAUGCCGGUGUCAGGAUAUCCGGAGGGAAACCUCCGGAGAAGGGACAUGAGGAUCACCCAUGUAUGUAACCUGC [AK-MS2ROC-r4-Bmoexclusion4-6] (Eterna round: R97, puzzle: Brourd's mod of Exclusion 4)”: the “apparent KD of MS2 coat protein” value turned out to be 24.9 nM (input ligand: FMN 200 uM) and 22.2 nM (input ligand: none).

Take “CACCAGAGAGGAUAUGCACUCAUGGCACCGAAAGGGAGGCGACAUGAGGAUCACCCAUGUAGAAGGCUCAGCAG [Eternabot (Original) Solution 16] (Eterna round: R97, puzzle: Exclusion 2)”: the “apparent KD of MS2 coat protein” value is, setting by setting: (input ligand: FMN 200 uM) 153 nM; (input ligand: none) 70.6 nM.

Consider “CUGUUUUUCGCAGGAUAUGCUUCUCCUUUAUUAGCAGAAGGGCGUUAAACAUGAGGAUCACCCAUGUAUGGUAAUGACAUUUUC [JR_ExcNG1_Sub061] (Eterna round: R96, puzzle: Exclusion NG 1)”, for which the “apparent KD of MS2 coat protein” value (input ligand: FMN 200 uM) worked out at 98.3 nM, the “apparent KD of MS2 coat protein” value under setting [2] is 18.2 nM and the “apparent KD of MS2 coat protein” value (input ligand: none) is 24.3 nM.

Turning to “GAGUGACAUGAGGAUCACCCAUGUGAGGAUAUCGGACGGACCAAAUUAACAAUAAAUGCGAGAAGGCACAUCGG [Exclusion 1 V13] (puzzle: Exclusion 1)”, under setting [1], the “apparent KD of MS2 coat protein” value turned out to be 55.4 nM.

Regarding “UACACUGCAUGAGGAUCAAACAUGAGGAUCACCCAUGUAUAACAAGCUUUUUGCACGUCUUAUAAUUAUGUAGUGUA [Electric Eye 14 - Jieux - Sensor, turn-off variant 1] (Eterna round: R97, puzzle: Sensor, turn-off variant 1)”, the “apparent KD of MS2 coat protein” value stood at 15.3 nM (input ligand: FMN 200 uM) and 16.2 nM (input ligand: none).

The values are drawn from the supplement of paper PMC9170038.
